From IntAct's records for PubMed 18001824

Biological target: rnf8_human RNF8 (UniProt O76064)
Chain of UniProt O76064 (O76064 whole entry): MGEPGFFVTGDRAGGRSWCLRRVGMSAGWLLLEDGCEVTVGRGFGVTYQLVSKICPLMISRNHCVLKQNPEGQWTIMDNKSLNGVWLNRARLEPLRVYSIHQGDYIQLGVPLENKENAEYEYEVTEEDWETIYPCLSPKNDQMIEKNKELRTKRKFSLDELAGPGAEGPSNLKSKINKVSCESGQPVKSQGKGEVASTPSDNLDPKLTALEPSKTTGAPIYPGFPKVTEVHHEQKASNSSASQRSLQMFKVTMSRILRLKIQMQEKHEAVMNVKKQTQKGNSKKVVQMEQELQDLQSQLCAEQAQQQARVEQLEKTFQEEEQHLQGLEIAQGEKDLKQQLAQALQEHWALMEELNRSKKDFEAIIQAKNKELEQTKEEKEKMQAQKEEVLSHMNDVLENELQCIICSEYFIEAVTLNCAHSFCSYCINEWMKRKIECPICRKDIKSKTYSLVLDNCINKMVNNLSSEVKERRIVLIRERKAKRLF

effect of a mutation on the interaction: decreasing interaction
Substance: Mediator of DNA damage checkpoint protein 1 (Homo sapiens), Q14676 T699A;T719A;T752A
